Measurements from patent US20260167714A1 (COHERUS BIOSCIENCES, published 2026).

Experiments:
[1] = biological target: T1, LILRA3 (human, UniProt Q8N6C8 24-439); experiment: SPR, Biacore 8K cross-reactivity study, single concentration 100 nM; upper end of the range 600-700 nM
T1 construct: Bought protein; limits of the part used are marked by bold type not visible here; whole entry named; also called recombinant human LILRA3
Method: (§1) SPR was used to determine the specificity of four humanized anti-ILT4 mAbs for binding to LILRB2 and to determine any cross-reactivity with nine other LILRA and LILRB family members. LILR proteins were purchased from Acro Biosystems or R&D Systems, with sequence provided below. The studies were performed with a Biacore 8K instrument using a CM4 sensor chip with a running buffer of HBS-P+, 100 μg/mL BSA. Anti-human Fc specific capture surfaces were prepared using standard amine coupling chemistry. MAb was captured to flow cell 2 with flow cell 1 serving as the reference flow cell. Each of the nine family members and LILRB2 were injected at 100 nM at 30 μL/min for 90 sec with 240 sec of dissociation. […] All sensorgrams were doubled-referenced during processing of the data.

[2] = biological target: T2, human ILT4 expressed on cells (human, UniProt Q8N423 22-597); experiment: flow based HLA-G blocking assay
T2 construct: whole, on cells; The same entry is used for endogenous ILT4 of human macrophages; also called CHO-S/ILT4 cells; ILT4-CHO cells

[3] = biological target: T3, LILRB4 (human, UniProt Q8NHJ6 22-259); experiment: SPR, Biacore 8K, mAb captured on anti-human Fc, analyte injected
T3 construct: Bought protein; limits of the extracellular domain are marked by bold type not visible here; whole entry named; also called recombinant human LILRB4; ILT3
Method: as §1

[4] = biological target: T4, LILRA5 (human, UniProt A6NI73 42-268); experiment: as above
T4 construct: Bought protein; limits of the extracellular domain are marked by bold type not visible here; whole entry named; also called recombinant human LILRA5
Method: as §1

[5] = biological target: T5, LILRA4 (human, UniProt P59901 24-446); experiment: as above
T5 construct: Bought protein; limits of the extracellular domain are marked by bold type not visible here; whole entry named; also called recombinant human LILRA4
Method: as §1

[6] = biological target: T6, LILRA6 (human, UniProt Q6PI73 24-447); experiment: as above
T6 construct: Bought protein; limits of the extracellular domain are marked by bold type not visible here; whole entry named; also called recombinant human LILRA6
Method: as §1

[7] = biological target: T7, LILRA2 (human, UniProt Q8N149 24-449); experiment: as above
T7 construct: Bought protein; limits of the extracellular domain are marked by bold type not visible here; whole entry named; also called recombinant human LILRA2
Method: as §1

[8] = biological target: T8, LILRB3 (human, UniProt O75022 24-443); experiment: as above
T8 construct: Bought protein; limits of the extracellular domain are marked by bold type not visible here; whole entry named; also called recombinant human LILRB3; ILT5
Method: as §1

[9] = biological target: T1, LILRA3; experiment: SPR, Biacore 8K, mAb captured on anti-human Fc, LILRA3 at 100 nM; legend: + weak binding (~600-700 nM KD)
Method: as §1

[10] = biological target: T9, recombinant human ILT4 (LILRB2) (human, UniProt Q8N423 22-460); experiment: SPR, Biacore 8K, mAb captured on anti-human Fc, LILRB2 at 100 nM; legend: ++++ tight binding (<100 pM KD)
T9 construct: Bought protein (Acro Biosystems or R&D Systems); also called ILTR4
Method: as §1

[11] = biological target: T9, recombinant human ILT4 (LILRB2); experiment: KinExA, solution equilibrium, n-curve analysis
Method: Kinetic Exclusion Assay (KinExA®) was performed to measure the equilibrium binding affinity and kinetics between human ILT4 and four humanized LALA-Fc modified antibodies in solution. For affinity analysis, the equilibrium dissociation constant, KD, was experimentally determined and reflects the strength of the binding interaction. The rate of association, kₒₙ, was also experimentally determined, while the rate of dissociation, koff, is calculated based on the following equation: koff=KD×kₒₙ
The binding affinity (KD), association (kₒₙ), and dissociation rate constants (koff) were measured for 4 different Humanized LALA IgG antibodies to ILT4 using KinExA. An n-curve analysis of at least two different curves, run at two different CBP concentrations, was used to determine the KD of the interactions The ILT4 was used as the concentration reference for all curves. All of the binding systems have low error and well defined 95% confidence intervals giving confidence to the measurements: […]

[12] = biological target: T9, recombinant human ILT4 (LILRB2); experiment: SPR, Biacore T200, mAb captured on anti-Fc, ILT4 injected, medium resolution, 25 C
Outline: (§2)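 Mouse, chimeric or humanized mAbs captured on anti-Fc surfaces (CM4 chip); ILT4 injected at 101 to 0.79 nM, 2-fold series, 90 s association, 1200 s dissociation. Run at 25° C in HBS-P+ pH 7.4 with 100 μg/ml BSA; double-referenced global 1:1 fit with mass-transport term, KD=koff/kon.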

[13] = biological target: T9, recombinant human ILT4 (LILRB2); experiment: SPR, Biacore T200, medium resolution; koff held at its limit of 4.27e-5 s^-1
Outline: as §2

[14] = biological target: T10, LILRA1 (human, UniProt O75019 17-461); experiment: SPR, Biacore 8K cross-reactivity study
T10 construct: Bought protein; limits of the extracellular domain are marked by bold type not visible here; whole entry named; also called recombinant human LILRA1
Method: as §1

[15] = biological target: T1, LILRA3; experiment: SPR, Biacore 8K cross-reactivity study, single concentration 100 nM; lower end of the range 600-700 nM
Method: as §1

[16] = biological target: T9, recombinant human ILT4 (LILRB2); experiment: SPR, high resolution kinetics, triplicate, LALA antibody; 95% CI in parentheses
[17] = biological target: T9, recombinant human ILT4 (LILRB2); experiment: SPR, high resolution kinetics, triplicate, LALA antibody

T1 sequence (Q8N6C8 24-439 A105V limits assumed): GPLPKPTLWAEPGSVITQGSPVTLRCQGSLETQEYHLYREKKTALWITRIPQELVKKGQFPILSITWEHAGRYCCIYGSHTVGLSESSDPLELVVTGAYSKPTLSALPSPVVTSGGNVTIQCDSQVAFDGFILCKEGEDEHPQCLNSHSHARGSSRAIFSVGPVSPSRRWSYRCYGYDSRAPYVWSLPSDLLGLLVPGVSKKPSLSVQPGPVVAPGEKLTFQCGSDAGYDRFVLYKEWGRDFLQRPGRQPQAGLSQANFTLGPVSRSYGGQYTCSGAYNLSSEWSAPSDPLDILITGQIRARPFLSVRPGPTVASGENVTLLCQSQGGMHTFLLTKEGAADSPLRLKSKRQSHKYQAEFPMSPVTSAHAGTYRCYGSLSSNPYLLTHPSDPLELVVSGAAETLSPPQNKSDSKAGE
T9 sequence (Q8N423 other isoform, or with tags, fused parts or gaps limits assumed): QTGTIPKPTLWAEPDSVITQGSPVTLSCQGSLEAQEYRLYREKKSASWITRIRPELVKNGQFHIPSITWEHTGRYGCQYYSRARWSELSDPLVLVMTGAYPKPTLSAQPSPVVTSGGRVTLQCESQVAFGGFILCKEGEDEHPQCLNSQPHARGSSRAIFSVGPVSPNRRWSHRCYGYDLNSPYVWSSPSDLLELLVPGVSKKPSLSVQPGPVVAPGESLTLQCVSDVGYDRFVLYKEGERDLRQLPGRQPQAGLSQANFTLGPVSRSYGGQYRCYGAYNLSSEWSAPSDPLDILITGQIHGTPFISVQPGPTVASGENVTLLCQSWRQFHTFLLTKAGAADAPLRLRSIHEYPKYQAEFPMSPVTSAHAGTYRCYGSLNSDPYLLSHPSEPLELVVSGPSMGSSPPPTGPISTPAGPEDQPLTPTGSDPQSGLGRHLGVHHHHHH
T3 sequence (Q8NHJ6 other isoform, or with tags, fused parts or gaps): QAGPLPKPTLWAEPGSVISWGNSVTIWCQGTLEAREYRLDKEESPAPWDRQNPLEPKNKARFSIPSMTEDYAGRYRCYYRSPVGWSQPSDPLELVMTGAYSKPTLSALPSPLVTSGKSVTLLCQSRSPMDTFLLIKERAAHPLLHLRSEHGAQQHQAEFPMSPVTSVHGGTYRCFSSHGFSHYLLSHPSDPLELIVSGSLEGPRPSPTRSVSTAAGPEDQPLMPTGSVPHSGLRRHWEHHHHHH
T10 sequence (O75019 other isoform, or with tags, fused parts or gaps): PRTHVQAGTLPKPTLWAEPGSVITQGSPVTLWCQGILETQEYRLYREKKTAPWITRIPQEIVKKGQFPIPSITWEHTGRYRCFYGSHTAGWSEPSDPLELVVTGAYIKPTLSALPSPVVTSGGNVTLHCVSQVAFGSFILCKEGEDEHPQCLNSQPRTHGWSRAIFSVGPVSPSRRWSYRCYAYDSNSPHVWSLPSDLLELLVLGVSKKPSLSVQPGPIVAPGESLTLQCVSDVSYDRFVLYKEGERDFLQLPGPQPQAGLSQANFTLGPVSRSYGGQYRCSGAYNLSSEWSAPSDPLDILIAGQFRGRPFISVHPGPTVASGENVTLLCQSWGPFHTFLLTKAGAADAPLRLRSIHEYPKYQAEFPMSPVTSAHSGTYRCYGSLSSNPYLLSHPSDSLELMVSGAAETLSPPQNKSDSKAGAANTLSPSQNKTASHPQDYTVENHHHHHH
T6 sequence (Q6PI73 other isoform, or with tags, fused parts or gaps): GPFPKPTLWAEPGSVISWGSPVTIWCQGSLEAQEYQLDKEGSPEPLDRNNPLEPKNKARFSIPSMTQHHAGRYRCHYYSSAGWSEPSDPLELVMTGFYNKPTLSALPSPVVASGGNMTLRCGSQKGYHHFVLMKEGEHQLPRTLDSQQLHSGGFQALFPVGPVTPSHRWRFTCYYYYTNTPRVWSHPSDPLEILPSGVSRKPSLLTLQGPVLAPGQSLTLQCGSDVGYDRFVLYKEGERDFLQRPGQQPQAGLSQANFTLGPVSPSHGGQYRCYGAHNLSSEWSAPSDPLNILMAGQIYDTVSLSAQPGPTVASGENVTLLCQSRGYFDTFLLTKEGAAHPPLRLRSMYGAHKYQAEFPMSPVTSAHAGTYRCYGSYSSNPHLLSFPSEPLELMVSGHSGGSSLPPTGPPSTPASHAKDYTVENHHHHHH
T7 sequence (Q8N149 other isoform, or with tags, fused parts or gaps): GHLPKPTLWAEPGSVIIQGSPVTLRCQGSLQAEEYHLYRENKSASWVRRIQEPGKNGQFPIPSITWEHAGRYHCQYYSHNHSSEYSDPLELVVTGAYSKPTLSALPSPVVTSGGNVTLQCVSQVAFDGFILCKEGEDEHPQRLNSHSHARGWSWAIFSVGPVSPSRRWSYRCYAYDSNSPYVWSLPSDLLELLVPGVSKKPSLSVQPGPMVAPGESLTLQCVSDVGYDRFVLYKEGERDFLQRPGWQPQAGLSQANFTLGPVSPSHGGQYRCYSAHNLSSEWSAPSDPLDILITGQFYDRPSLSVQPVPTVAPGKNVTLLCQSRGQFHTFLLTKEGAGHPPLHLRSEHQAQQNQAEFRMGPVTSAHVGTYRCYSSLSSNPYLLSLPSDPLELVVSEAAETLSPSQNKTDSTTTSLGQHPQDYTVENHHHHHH
T8 sequence (O75022 other isoform, or with tags, fused parts or gaps): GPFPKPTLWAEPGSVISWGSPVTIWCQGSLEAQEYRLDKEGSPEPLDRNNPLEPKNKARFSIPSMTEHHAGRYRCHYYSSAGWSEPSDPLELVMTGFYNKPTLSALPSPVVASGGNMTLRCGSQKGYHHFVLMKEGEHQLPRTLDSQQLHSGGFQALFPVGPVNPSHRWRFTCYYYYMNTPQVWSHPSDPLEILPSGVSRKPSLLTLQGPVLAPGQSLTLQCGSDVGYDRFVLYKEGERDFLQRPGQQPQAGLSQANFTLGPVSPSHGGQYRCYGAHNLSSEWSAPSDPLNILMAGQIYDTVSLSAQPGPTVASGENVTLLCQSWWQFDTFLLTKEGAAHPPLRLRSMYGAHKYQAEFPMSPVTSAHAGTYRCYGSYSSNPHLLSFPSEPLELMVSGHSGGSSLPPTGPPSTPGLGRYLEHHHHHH
T5 sequence (P59901 other isoform, or with tags, fused parts or gaps): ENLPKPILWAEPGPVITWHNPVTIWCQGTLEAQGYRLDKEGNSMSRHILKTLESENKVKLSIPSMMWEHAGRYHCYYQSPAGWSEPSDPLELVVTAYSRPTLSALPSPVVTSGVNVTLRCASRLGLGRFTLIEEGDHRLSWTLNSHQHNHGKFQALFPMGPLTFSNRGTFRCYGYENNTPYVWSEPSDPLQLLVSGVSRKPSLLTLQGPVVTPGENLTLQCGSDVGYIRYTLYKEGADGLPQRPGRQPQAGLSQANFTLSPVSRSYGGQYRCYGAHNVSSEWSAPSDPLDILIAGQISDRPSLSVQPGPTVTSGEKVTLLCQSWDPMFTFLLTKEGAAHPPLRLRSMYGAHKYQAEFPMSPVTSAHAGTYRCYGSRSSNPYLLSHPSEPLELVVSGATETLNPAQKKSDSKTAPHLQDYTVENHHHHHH
T4 sequence (A6NI73 other isoform, or with tags, fused parts or gaps): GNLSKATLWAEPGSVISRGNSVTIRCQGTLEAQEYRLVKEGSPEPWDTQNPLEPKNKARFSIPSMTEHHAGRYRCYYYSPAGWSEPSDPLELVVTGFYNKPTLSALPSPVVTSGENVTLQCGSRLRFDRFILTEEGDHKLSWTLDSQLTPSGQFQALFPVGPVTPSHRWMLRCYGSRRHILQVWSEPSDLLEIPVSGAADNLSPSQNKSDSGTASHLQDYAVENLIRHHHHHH
T2 sequence (Q8N423 22-597): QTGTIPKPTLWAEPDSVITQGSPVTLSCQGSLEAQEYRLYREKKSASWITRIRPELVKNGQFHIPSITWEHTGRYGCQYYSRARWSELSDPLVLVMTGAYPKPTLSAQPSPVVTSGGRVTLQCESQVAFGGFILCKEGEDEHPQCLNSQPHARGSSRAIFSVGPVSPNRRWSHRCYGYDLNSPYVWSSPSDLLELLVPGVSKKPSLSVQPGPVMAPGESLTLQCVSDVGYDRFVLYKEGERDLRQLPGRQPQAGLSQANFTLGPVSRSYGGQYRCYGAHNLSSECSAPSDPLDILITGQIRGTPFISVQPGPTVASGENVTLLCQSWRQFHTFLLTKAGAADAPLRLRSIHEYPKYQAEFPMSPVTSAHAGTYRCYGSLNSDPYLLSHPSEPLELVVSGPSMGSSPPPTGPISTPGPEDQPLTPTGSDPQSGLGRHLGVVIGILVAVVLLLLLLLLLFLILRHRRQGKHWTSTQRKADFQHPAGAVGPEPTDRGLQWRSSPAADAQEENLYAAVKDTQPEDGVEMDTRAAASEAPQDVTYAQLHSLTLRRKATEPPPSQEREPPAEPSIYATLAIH

B1: Hz180-LALA (antibody, human IgG1, kappa, L234A L235A, V domains shown)
VH: QVQLVQSGAEVKKPGSSVKVSCKASGYSFIGYFMNWMRQAPGQGLEWIGRINPYNGDIFYNQKFKGRVTITVDKSTSTAYMELSSLRSEDTAVYYCARGITVAAGSFDVWGQGTTVTVSS
VL: DIVMTQSPDSLAVSLGERATINCRASESVDNYGNTFMHWYQQKPGQPPKLLIYRASNLESGIPDRFSGSGSGTDFTLTISSLQAEDVAVYYCQQSSDHPLTFGGGTKVEIKR
notes: Humanized L180S4, human IgG1 L234A/L235A, kappa; also called Humanized 180_04; Hz 180 04
B1 was tested, and the Kd [1] was 600 to 700 nM, the IC50 [2] was 0.051 µg/mL and the binding result [3] was “no binding (tested: 100 nM)”. B1: no binding (tested: 100 nM) [4]; no binding (tested: 100 nM) [5]; no binding (tested: 100 nM) [6]. For the same binder, the binding result [7] was “no binding (tested: 100 nM)”, the binding result [8] was “no binding (tested: 100 nM)” and the KD [9] was 600 to 700 nM. It also gave a KD [10] of less than 0.1 nM, a Kd [11] of 0.000759 nM and a kon [12] of 812000 M⁻¹ s⁻¹. For the same binder, the Kd [13] was no more than 0.053 nM, the koff [13] was no more than 4.27e-05 s⁻¹ and the binding result [14] was “binds”. The Kd [15] was 600 to 700 nM, the kon [16] was 3.95e+06 M⁻¹ s⁻¹ and the Kd [17] was 0.0016 nM. The koff [17] was 6.3e-06 s⁻¹.
